# Data as given in PMC2192027.
# Columns and labels:
# [1] = target: recombinant full-length luminal segment of CLIMP-63 (amino acids 127–601) (UniProt Q07065); test: AUC
# [2] = target: CLIMP-63 luminal fragment 268–459 (UniProt Q07065); test: AUC
percent sedimenting at 26 S (1.5 M urea) [1],percent sedimenting at 26 S (2 M urea) [1],percent sedimenting at 26 S (2.5 M urea) [1],stoichiometry N [2],Substance
80%,50%,20%,,recombinant full-length luminal segment of CLIMP-63 (amino acids 127–601) (from UniProt Q07065 127-601) (domain or fragment)
,,,2,CLIMP-63 luminal fragment 268–459 (from UniProt Q07065 268-459) (domain or fragment)
